Values of other authors, collected in article PMC8910571.
pKd: −log10 of the molar value.

Biological target: T1, PTK7 (tyrosine kinase 7 protein) (UniProt Q13308)
T1 sequence: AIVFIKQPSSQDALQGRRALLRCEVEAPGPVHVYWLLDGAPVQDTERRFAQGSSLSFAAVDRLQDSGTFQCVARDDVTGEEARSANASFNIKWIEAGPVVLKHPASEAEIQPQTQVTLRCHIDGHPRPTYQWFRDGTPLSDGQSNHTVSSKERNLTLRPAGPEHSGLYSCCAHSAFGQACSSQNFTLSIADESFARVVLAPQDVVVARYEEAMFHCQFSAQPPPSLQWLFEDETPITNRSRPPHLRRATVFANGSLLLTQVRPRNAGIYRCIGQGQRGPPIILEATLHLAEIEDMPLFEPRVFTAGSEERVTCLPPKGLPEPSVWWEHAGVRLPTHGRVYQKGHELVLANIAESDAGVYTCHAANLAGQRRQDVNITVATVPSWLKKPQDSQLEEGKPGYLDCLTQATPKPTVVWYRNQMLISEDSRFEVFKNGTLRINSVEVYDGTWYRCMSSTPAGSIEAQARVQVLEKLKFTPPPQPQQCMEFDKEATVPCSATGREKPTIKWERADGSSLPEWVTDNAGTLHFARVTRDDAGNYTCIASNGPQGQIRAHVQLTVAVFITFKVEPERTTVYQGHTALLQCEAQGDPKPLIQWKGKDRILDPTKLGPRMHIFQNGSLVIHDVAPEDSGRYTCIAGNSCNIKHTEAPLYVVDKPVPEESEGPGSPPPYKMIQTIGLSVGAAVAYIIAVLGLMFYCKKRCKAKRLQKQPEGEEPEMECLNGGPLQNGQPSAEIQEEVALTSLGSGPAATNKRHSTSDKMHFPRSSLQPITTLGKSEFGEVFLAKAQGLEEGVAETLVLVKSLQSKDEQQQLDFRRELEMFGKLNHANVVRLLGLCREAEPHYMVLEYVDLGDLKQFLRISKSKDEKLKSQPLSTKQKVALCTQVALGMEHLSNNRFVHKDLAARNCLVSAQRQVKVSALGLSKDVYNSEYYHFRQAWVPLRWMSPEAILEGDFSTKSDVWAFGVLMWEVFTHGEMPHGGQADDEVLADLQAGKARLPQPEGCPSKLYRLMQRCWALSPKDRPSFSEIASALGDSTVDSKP

For “ATCTAACTGCTGCGCCGCCGGGAAAATACTGTACGGTTAGA [Sgc8-c]”, the pKd is listed as 9.11.
